From patent US20150210756A1 (NEW YORK UNIVERSITY, published 2015)
Changes are numbered by the printed parent chain.

B1: Luk26 (designed binder)
chain: LPAPKNLVVSRVTEDSARLSWTAPDAAFDSFHIEYAEPWVWGEAIVLTVPGSERSYDLTGLKPGTEYVVFIGGVKGGHNSTPLSAIFTT
notes: also called anti-LukE FN3 domain Luk26; not shown: C-terminal poly-histidine tag
B2: Luk27 (designed binder)
chain: LPAPKNLVVSRVTEDSARLSWTAPDAAFDSFPIVYQEWQFYGEAIVLTVPGSERSYDLTGLKPGTEYLVDIYGVKGGSWSYPLSAIFTT
notes: also called anti-LukE FN3 domain Luk27; not shown: C-terminal poly-histidine tag
B3: Luk60 (designed binder)
chain: LPAPKNLVVSRVTEDSARLSWTAPDAAFDSFDIQYWEWWPFGEAIVLTVPGSERSYDLTGLKPGTEYGVIILGVKGGFRSTPLSAIFTT
notes: not shown: C-terminal poly-histidine tag
B4: Luk28 (designed binder)
chain: B3 chain with D32A, F41P, F78W, R79Y, T81N
notes: as for B3
B5: Luk48 (designed binder)
chain: B3 chain with D32H, Q34E, W36G, F41T, I70L, L72V, T81S
notes: as for B3
B6: Luk50 (designed binder)
chain: B3 chain with D32V, Q34P, W36S, F41V, I70Y, L72V, F78T, R79W, T81A
notes: as for B3
B7: Luk29 (designed binder)
chain: LPAPKNLVVSRVTEDSARLSWDEQFVSNFDSFLIQYQESEKVGEAIVLTVPGSERSYDLTGLKPGTEYTVSIYGVFVPWDGFSEINYSNPLSAIFTT
notes: as for B3
B8: Luk30 (designed binder)
chain: LPAPKNLVVSRVTEDSARLSWAFNWNYFAFDSFLIQYQESEKVGEAIVLTVPGSERSYDLTGLKPGTEYTVSIYGVVALNTGNKKSNPLSAIFTT
notes: as for B3
B9: Luk31 (designed binder)
chain: LPAPNNLVVSRVTEDSARLSWDWDKYYTNRFDSFLIQYQESEKVGEAIVLTVPGSERSYDLTGLKPGTEYTVSIYGVLVRDYIRAAEWYSNPLSAIFTT
notes: as for B3
B10: Luk32 (designed binder)
chain: LPAPKNLVVSRVTEDSARLSWYHENAYLLFDSFLIQYQESEKVGEAIVLTVPGSERSYDLTGLKPGTEYTVSIYGVVYDLTPEKRSSNPLSAIFTT
notes: as for B3
B11: Luk33 (designed binder)
chain: LPAPKNLVVSRVTEDSARLSWTAPDAAFDSFLIQYQESEKVGEAIVLTVPGSERSYDLTGLKPGTEYTVSIYGVAFIPDEIEFSNPLSAIFTT
notes: as for B3
B12: Luk34 (designed binder)
chain: B11 chain with L61P, A75V, F76V, I77V, D79H, I81F
notes: as for B3
B13: Luk35 (designed binder)
chain: B11 chain with F76H, D79W, I81F, F83W, N85K
notes: as for B3
B14: Luk36 (designed binder)
chain: B11 chain with F76D, I77V, I81Y
notes: as for B3
B15: Luk37 (designed binder)
chain: LPAPKNLVVSRVTEDSARLSWTAPDAAFDSFLIQYQESEKVGEAIVLTVPGSERSYDLTGLKPGTEYTVSIYGVVGWPLFIQSNPLSAIFTT
notes: as for B3
B16: Luk38 (designed binder)
chain: LPAPKNLVVSRVTEDSARLSWTAPDAAFDSFLIQYQESEKVGEAIVLTVPGSERSYDLTGLKPGTEYTVSIYGVELIYHGWLDFVFSNPLSAIFTT
notes: also called anti-LukE FN3 domain Luk38; not shown: C-terminal poly-histidine tag
B17: Luk39 (designed binder)
chain: B16 chain with E75R, L76V, I77F, H79F, G80S, W81V, L82E, D83P, F84T, V85W
notes: as for B3
B18: Luk43 (designed binder)
chain: LPAPKNLVVSRVTEDSARLSWTAPDAAFDSFLIQYQESEKVGEAIVLTVPGSERSYDLTGLKPGTEYTVSIYGVNSFGRPTLNLFSNPLSAIFTT
notes: as for B3
B19: Luk40 (designed binder)
chain: B18 chain with N75S, S76Y, F77A, R79E, T81L, N83W, L84I, F85Y
notes: as for B3
B20: Luk44 (designed binder)
chain: B18 chain with N75E, S76W, F77L, G78Q, R79Y, P80Y, T81G, L82E, N83T
notes: as for B3
B21: Luk45 (designed binder)
chain: B18 chain with N75A, S76W, F77L, G78T, R79N, P80A, T81Y, L82E, N83W, L84E
notes: as for B3
B22: Luk41 (designed binder)
chain: LPAPKNLVVSRVTEDSARLSWTAPDAAFDSFLIQYQESEKVGEAIVLTVPGSERSYDLTGLKPGTEYTVSIYGVSEVPYSEYWFSNPLSAIFTT
notes: as for B3
B23: Luk42 (designed binder)
chain: B22 chain with S75V, E76W, V77G, P78Y, Y79R, S80L, E81T, Y82T, W83E, F84H
notes: as for B3
B24: Luk46 (designed binder)
chain: LPAPKNLVVSRVTEDSARLSWTAPDAAFDSFWIHYEESTWAGEAIVLTVPGSERSYDLTGLKPGTEYGVVIVGVKGGLKSHPLSAIFTT
notes: as for B3
B25: Luk47 (designed binder)
chain: LPAPKNLVVSRVTEDSARLSWTAPDAAFDSFGIQYFETTESGEAIVLTVPGSERSYDLTGLKPGTEYVVFISGVKGGPLSWPLSAIFTT
notes: as for B3
B26: Luk49 (designed binder)
chain: LPAPKNLVVSRVTEDSARLSWTAPDAAFDSFAIVYAEHWPAGEAIVLTVPGSERSYDLTGLKPGTEYNVTIPGVKGGKYSDPLSAIFTT
notes: as for B3
B27: Luk53 (designed binder)
chain: B25 chain with G32T, T38A, T39E, E40A, S41N, V68L, S72V, P78H, L79S, W81L
notes: as for B3
B28: Luk51 (designed binder)
chain: B25 chain with G32Q, Q34H, T38S, T39E, E40P, S41G, S72I, P78W, L79S, W81L
notes: as for B3
B29: Luk55 (designed binder)
chain: B25 chain with G32W, T38S, T39A, E40G, S41E, V68L, S72V, P78V, L79P, W81Y
notes: as for B3
B30: Luk52 (designed binder)
chain: B25 chain with G32W, F36G, T38A, T39Q, S41F, V68I, S72T, P78N, L79K, W81Y
notes: as for B3
B31: Luk54 (designed binder)
chain: B3 chain with A27V, D32R, Q34E, W36S, F41I, I70V, L72A, F78G, R79Y, T81V
notes: as for B3
B32: Luk56 (designed binder)
chain: LPAPKNLVVSRVTEDSARLSWTAPDAAFDSFYIQYIELEIGEAIVLTVPGSERSYDLTGLKPGTEYGVFISGVKGGWNSYPLSAIFTT
notes: as for B3
B33: Luk57 (designed binder)
chain: B3 chain with D29N, D32Y, Q34E, W36F, W39F, F41A, G68A, L72H, F78Q
notes: as for B3

Target: T1, LukE (S. aureus, UniProt Q2FXB0 24-306)
T1 construct: also called leukotoxin E
Assay: ELISA after cis-display panning

Binder | binding result
B1 | binds
B2 | binds
B3 | binds
B4 | binds
B5 | binds
B6 | binds
B7 | binds
B8 | binds
B9 | binds
B10 | binds
B11 | binds
B12 | binds
B13 | binds
B14 | binds
B15 | binds
B16 | binds
B17 | binds

Binder | binding result
B18 | binds
B19 | binds
B20 | binds
B21 | binds
B22 | binds
B23 | binds
B24 | binds
B25 | binds
B26 | binds
B27 | binds
B28 | binds
B29 | binds
B30 | binds
B31 | binds
B32 | binds
B33 | binds
